Assay [1] deals with Bifidobacterium infantis M-63. Briefly: Growth promoting effect on Bifidobacterium infantis M-63 (turbidity at 600 nm). The format is cell-based. Particulars: 2′-FL 0.000 mass %, 37° C., 24 hours, n = 12. How it is done:
(§1) 150 μL of a pre-culture solution of Bifidobacterium breve M-16V was added to 3 mL of MRS medium prepared in (1) (i), and was anaerobically cultured at 37° C. for 16 hours. After culturing, the cells were separated from the culture solution by centrifuging at 1500×g for 5 minutes. The culture solution was removed, and the cells were resuspended in 3 mL of glucose-free MRS medium prepared in (1) (ii).
(§2) The pre-culture solution prepared in (2) was added to the glucose-free MRS medium prepared in (1) (ii) to have a final concentration of 1 v/v %. Further, the 2′-fucosyllactose (2′-FL) solution and the lactoferrin solution prepared in (1) (iii) were respectively added to have the final concentrations shown in Table 2, and were dispensed into a 96-well plate at 200 μL/well.
(§3) Then, the cells were anaerobically cultured at 37° C. for 24 hours. After culturing, turbidity was measured at a wavelength of 600 nm using a microplate reader (Corona Electric) to evaluate the growth of bifidobacteria.
The same operation as in Example 1 was carried out except that the bifidobacteria were replaced with Bifidobacterium infantis M-63, and the growth was evaluated.

Assay [2] has as its system Bifidobacterium breve M-16V. Description: Growth promoting effect on Bifidobacterium breve M-16V (turbidity at 600 nm after anaerobic culture). Type of assay: cell-based. The conditions noted are these: 2′-FL 0.000 mass %, glucose-free MRS, 37° C., 24 hours, n = 4. How it is done:
DifcoMRS (BD) was dissolved in purified water as described in a package insert and sterilized at 115° C. for 15 minutes. L-Cysteine hydrochloride (Wako) was dissolved in purified water, filtered and sterilized, and was aseptically added to MRS medium cooled to room temperature after sterilization to have a final concentration of 0.05% by mass.
A reagent was dissolved in purified water with the composition shown in Table 1 and sterilized at 115° C. for 15 minutes. L-Cysteine hydrochloride (Wako) was dissolved in purified water, filtered and sterilized, and was aseptically added to MRS medium cooled to room temperature after sterilization to have a final concentration of 0.05% by mass.
Human milk oligosaccharide (2′-fucosyllactose (2′-FL) (Carbosynth)) and lactoferrin (produced by Morinaga Milk Industry Co., Ltd., iron content 15.8 mg/100 g) were dissolved in purified water, respectively. They were filtered and sterilized after dissolution.
as §1, §2, §3

B1: lactoferrin (protein, UniProt P24627 20-708, looked up)
Lactotransferrin: APRKNVRWCTISQPEWFKCRRWQWRMKKLGAPSITCVRRAFALECIRAIAEKKADAVTLDGGMVFEAGRDPYKLRPVAAEIYGTKESPQTHYYAVAVVKKGSNFQLDQLQGRKSCHTGLGRSAGWIIPMGILRPYLSWTESLEPLQGAVAKFFSASCVPCIDRQAYPNLCQLCKGEGENQCACSSREPYFGYSGAFKCLQDGAGDVAFVKETTVFENLPEKADRDQYELLCLNNSRAPVDAFKECHLAQVPSHAVVARSVDGKEDLIWKLLSKAQEKFGKNKSRSFQLFGSPPGQRDLLFKDSALGFLRIPSKVDSALYLGSRYLTTLKNLRETAEEVKARYTRVVWCAVGPEEQKKCQQWSQQSGQNVTCATASTTDDCIVLVLKGEADALNLDGGYIYTAGKCGLVPVLAENRKSSKHSSLDCVLRPTEGYLAVAVVKKANEGLTWNSLKDKKSCHTAVDRTAGWNIPMGLIVNQTGSCAFDEFFSQSCAPGADPKSRLCALCAGDDQGLDKCVPNSKEKYYGYTGAFRCLAEDVGDVAFVKNDTVWENTNGESTADWAKNLNREDFRLLCLDGTRKPVTEAQSCHLAVAPNHAVVSRSDRAAHVKQVLLHQQALFGKNGKNCPDKFCLFKSETKNLLFNDNTECLAKLGGRPTYEEYLGTEYVTAIANLKKCSTSPLLEACAFLTR
notes: lactoferrin produced by Morinaga Milk Industry Co., Ltd., iron content 15.8 mg/100 g
As to B1, the OD600 in assay [1] (lactoferrin 0.500 mg/mL) is given as 0.093; in assay [1] (lactoferrin 1.000 mg/mL) it was 0.101; in assay [2] (lactoferrin 0.031 mg/mL) it was 0.072; in assay [2] (lactoferrin 0.063 mg/mL) it was 0.074; in assay [2] (lactoferrin 0.125 mg/mL), 0.073; in assay [2] (lactoferrin 0.250 mg/mL) it was 0.074. For the same molecule, the results for the OD600 in assay [2] (lactoferrin 0.500 mg/mL) and in assay [2] (lactoferrin 1.000 mg/mL) were 0.075 and 0.078, respectively.
